The source of these data is paper PMC3974700, “SDA, a DNA Aptamer Inhibiting E- and P-Selectin Mediated Adhesion of Cancer and Leukemia Cells, the First and Pivotal Step in Transendothelial Migration during Metastasis Formation”.

Series [1] concerns the target T1, E-selectin/IgG-Fc chimera (human, UniProt P16581 22-556).
T1 sequence: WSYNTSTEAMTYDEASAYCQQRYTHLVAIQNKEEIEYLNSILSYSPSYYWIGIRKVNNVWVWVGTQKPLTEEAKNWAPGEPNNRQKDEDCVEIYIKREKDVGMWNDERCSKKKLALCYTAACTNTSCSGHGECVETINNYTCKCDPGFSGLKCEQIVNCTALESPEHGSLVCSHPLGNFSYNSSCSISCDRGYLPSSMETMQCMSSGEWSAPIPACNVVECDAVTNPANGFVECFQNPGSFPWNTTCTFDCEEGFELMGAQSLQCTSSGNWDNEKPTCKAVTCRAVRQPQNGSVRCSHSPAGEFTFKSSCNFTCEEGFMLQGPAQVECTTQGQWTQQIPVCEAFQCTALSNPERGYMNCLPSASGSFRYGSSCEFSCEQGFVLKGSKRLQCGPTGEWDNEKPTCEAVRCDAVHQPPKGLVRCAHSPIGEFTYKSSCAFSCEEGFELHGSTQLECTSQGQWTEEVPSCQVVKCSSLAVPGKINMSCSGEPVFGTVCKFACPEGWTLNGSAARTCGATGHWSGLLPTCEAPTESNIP
Kind of series: filter binding; 3 mM Mg2+; Selection buffer: 3 mM MgCl2 in PBS, pH 7.5 (with 1 mg/mL BSA as described for SELEX beads); room temperature, 30 min; DNA <1 nM, protein 0-1 uM. The settings on record: protein: commercial; tags: IgG-Fc fusion; chain copies: 2; label: 32P (T4 polynucleotide kinase).

For series [2], the target named is P-selectin/IgG-Fc chimera (human, UniProt P16109 42-771). The description is as above. The settings on record: protein: commercial; tags: IgG-Fc fusion; chain copies: 2; label: 32P (T4 polynucleotide kinase).
P-selectin/IgG-Fc chimera, sequence (P16109 42-771, change not shown): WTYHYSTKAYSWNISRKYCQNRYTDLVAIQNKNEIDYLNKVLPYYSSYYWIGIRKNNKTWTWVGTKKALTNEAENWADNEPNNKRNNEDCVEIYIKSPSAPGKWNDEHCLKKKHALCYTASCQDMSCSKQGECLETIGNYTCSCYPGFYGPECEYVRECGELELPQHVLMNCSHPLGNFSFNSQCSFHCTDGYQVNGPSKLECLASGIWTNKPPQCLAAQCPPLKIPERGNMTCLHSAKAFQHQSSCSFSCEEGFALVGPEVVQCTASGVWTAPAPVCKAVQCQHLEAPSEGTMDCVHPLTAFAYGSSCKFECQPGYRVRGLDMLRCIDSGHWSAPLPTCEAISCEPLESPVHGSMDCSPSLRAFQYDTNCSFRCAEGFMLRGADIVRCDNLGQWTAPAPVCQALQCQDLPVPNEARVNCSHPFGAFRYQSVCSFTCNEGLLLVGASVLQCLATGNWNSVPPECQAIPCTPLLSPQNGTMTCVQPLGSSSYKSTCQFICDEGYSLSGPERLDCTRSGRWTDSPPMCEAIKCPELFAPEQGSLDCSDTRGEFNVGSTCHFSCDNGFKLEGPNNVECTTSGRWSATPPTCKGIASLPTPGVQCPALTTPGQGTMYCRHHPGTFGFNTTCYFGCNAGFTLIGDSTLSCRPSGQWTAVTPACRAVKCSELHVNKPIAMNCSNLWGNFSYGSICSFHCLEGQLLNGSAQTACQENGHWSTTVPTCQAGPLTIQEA

B1: SDA (ssDNA)
DNA: GCCTGTTGTGAGCCTCCTAACGATTTGGATTTGGGGTGGAGGGTATGGTTTGTGCTGGCGTTCTCATTTCCCATGCTTATTCTTGTCTCCC
Broadly, the Kd is the equilibrium constant for the complex coming apart. Take B1: the Kd came to 98 ± 16 nM in series [1] and 95 ± 18 nM in series [2].

B2: control DNA (ssDNA)
DNA: GCCTGTTGTGAGCCTCCTAACGAGGAGTGGGCTAAAGGTATGTTGTGGGTTTGGTTCCATGCTTATTCTTGTCTCCC
As to B2, the binding result in series [1] and in series [2] was “no binding” throughout.
